Test results reported in patent US9624471B2, “Methods for maturing cardiomyocytes and uses thereof” (UNIVERSITY OF WASHINGTON THROUGH ITS CENTER FOR …, priority 2013, dated 2017).

Test system: let-7g OE CMs
Experiment: Whole genome transcriptome profiling (ILLUMINA RNA sequencing) of let-7g OE CMs vs. EV control CMs
Type: cell-based, human
Source text: To further understand the effects of let-7 OE during cardiomyocyte maturation at a molecular level, the inventors carried out whole genome transcriptome profiling of let-7g OE CMs and corresponding EV control CMs using an ILLUMINA™ RNA sequencing platform. […] Using expression values for the genes that belonged to the 12 pathways (FIG. 1E), the inventors carried out a 2D-PCA comparing let-7g OE CMs and EV control CMs with H7-CMs at day 20 and 1 yr, IMR90iPSC-CMs at 1 yr and 3 month old HFA and HFV samples. […] Further evidence of let-7g directed maturation was observed from known isoform changes accompanying cardiomyocyte maturation, such as shifts in myosin heavy chain (MYH6/MYH7)^29 (FIG. 13). […] Focusing on the 34 differentially spliced genes in common among H7-CM-1yr, let-7 OE and fetal samples (FIG. 4C), the inventors identified the single transcript of each showing the greatest absolute change in proportion between H7-CM day 20 and the above three samples (data not shown). […] The same pattern emerges from analysis of the relative expression levels of all 377 isoforms (data not shown) of these 34 genes again showing that the developmental chronology of the samples is well captured by principal component 1. In short, there are concerted and dynamic changes in splicing during maturation. The fact that both differential splicing and differential expression analyses cluster let-7 OE CMs with H71yr-CM and fetal samples, clearly strengthens the finding that let-7 is critical for maturation.
Total RNAs for HFA and HFV samples were extracted using RNAeasy mini kit (QIAGEN™)^7. Total RNAs for all other samples were extracted with MIRNEASY™ mini kit (QIAGEN™) and were further DNAse treated with DNA-free kit (AMBION™). RNA and Small RNA libraries were prepared independently using TRUSEQ™ library preparation kits (ILLUMINA™) following the manufacturer's protocols. […] Sequence data for miRNAs were analyzed using miRDeep2™ software^8. […] For mRNA sequencing analysis, mRNA reads from samples were mapped to hg19 reference genome using STAR version 2.3.010. BAM files produced by STAR were analyzed with Cufflinks version 2.1.1_11 run in de novo mode. […]
Gene and transcript abundance was estimated using Markov chain Monte Carlo to sample from a hierarchical Bayesian model. […] Under this model, estimates from transcripts with very low data are effectively shrunk towards each other to avoid spuriously highfold-change estimates that can occur when using simple read or fragment count estimates. Expression estimates, measured in transcripts per million (TPM), and adjusted using upper quantile normalization^12, were generated for the Ensembl 74 gene annotation database^13.
Separately, statistical significance of differential expression at the gene level was analyzed using DESeq^14. […]

B1: let-7g: human let-7 family miRNA, SEQ ID NO: 9, overexpressed from pLKO lentiviral pri-miR-let-7g construct (nucleic acid, listed as Homo sapiens)
chain: AGGCUGAGGUAGUAGUUUGUACAGUUUGAGGGUCUAUGAUACCACCCGGUACAGGAGAUAACUGUACAGGCCACUGCCUUGCCA
Q: What does the source list for B1?
A: maturation markers RYR2, MYH7, KCNJ2 expression (RNA sequencing, compared to EV control): increased expression; FA metabolism (gene expression, density plots) (in comparison to EV control): significantly up-regulated; PI3/AKT/Insulin signaling (gene expression, density plots) (in comparison to EV control): significantly down-regulated; position in dimension 1 of 2D-PCA (genes of 12 pathways) (vs. H7-CMs day 20 and 1 yr, EV control): closer to 1 yr than the EV and day 20 CMs
